# Data from the supplement of paper PMC12042874.
# ± gives the uncertainty stated by the source.
# Assay: amyloid nucleation score (Sup35N fusion, yeast selection) (log enrichment); library NNK2; higher = more nucleation; inactive = no reads after selection
# Procedure, shortened: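 Libraries of peptides of 20 random codons fused to Sup35N were expressed in psi-negative yeast and induced 24 hours with 100 μM copper sulfate. Selection was 7 days at 30°C on medium lacking adenine and uracil, and plasmid inserts were Illumina-sequenced before and after selection. Nucleation score is the DiMSum log enrichment of output over input reads, centred on the mode score of non-aggregating sequences, and sequences with under 100 input reads were left out.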
row,Substance,amyloid nucleation score
1,CLDPLAMSN,inactive
2,CMQVYTVEYTGFCCATRARK,5.09 ± 0.066
3,ALFIRVYMLFRRCEECSLQV,7.575 ± 0.055
4,LPHKSLFDPLWRIGKILIQH,0.034 ± 1.1
5,NLSYSVVMTGISGAMTTCCF,3.64 ± 0.11
6,IPMPSCVQYYSVDYRWASLL,-1.27 ± 0.44
7,AADKAICPVGGNTGHRSLGS,0.691 ± 0.35
8,DNGNWVCWLHVLGQGSHRKA,inactive
9,KTSWVVYDGFRARDARSWRS,-0.245 ± 0.48
10,DTQGIR,-0.212 ± 0.65
11,RARFHFVKTCSTQRSMPHMG,3.21 ± 0.073
12,IVLLAVI,0.539 ± 0.81
13,RYIVILSFVRGSWLYFLTRT,-0.543 ± 0.5
14,YYSPQSVKEYPRNTYRLIKA,-0.613 ± 0.45
15,GSGIIHTVGLGV,-0.153 ± 0.65
16,YLHHIRCGYWVVVFVSTGSA,-0.252 ± 0.41
17,KGWWGVIRDYREWFTGSRWG,0.594 ± 0.47
18,VNCYTIWVGNSSRSVHSINA,5.27 ± 0.083
19,NSRLLLTHRRISPSPWYVGV,1.09 ± 0.16
20,IYINYHREA,3.54 ± 0.052
21,ANSVNRSKDCTYFVFHRF,5.436 ± 0.054
22,VMGDWAFSGFSNSNFS,-0.931 ± 0.44
23,RIMIEFWPRFSWSI,0.744 ± 0.14
24,VNQLRHYDLGINAHGQCRRL,0.54 ± 0.8

row,Substance,amyloid nucleation score
1,VLVIVVTLRKWMTLNRRGVP,0.155 ± 0.53
2,YYLGWIMLVHYGSWTTCLVR,0.531 ± 0.64
3,NIPRRGIVGWTAL,inactive
4,NKNVSTGWYCVIESI,1.26 ± 0.6
5,RREDKLICRFIDVNLEVDW,2.72 ± 0.066
6,SVEMRTNLTAGWRILIRWSS,1.2 ± 0.14
7,MFSIYSGYIVKQC,0.336 ± 0.74
8,SSTSLLNLPCWDRIFHTVRL,-0.429 ± 0.42
9,GQYVQCNMSCVYVFLQWQRR,6.262 ± 0.033
10,NVMKVLSNRL,1.61 ± 0.1
11,YLGLPLQDLRRVIMSEHVLV,0.779 ± 0.37
12,FRLRMRSGYSARLSRFFCPL,2.51 ± 0.077
13,NVTQMRGSDISLLRMFESNY,0.454 ± 0.45
14,VSYVYYSM,-0.242 ± 1.1
15,AEANLNFGLMDGAMSVKRAE,-0.329 ± 0.55
16,MAMVLWLECTS,0.924 ± 0.47
17,WRGSLTSPAPGET,1.87 ± 0.17
18,FYVVFLNGVLLDYNDDLYGI,inactive
19,QSTSQLRLYELSR,-0.206 ± 1.1
20,FSQNIVSSRVVTYKMNCNGM,3.72 ± 0.044
21,VLLSGLY,inactive
22,ITWNIVGGHFS,-0.412 ± 1.1
23,CYNVGEGIVARIRGGSKGLK,0.619 ± 0.81
24,AYCRGFYYIIALVSSPEQKR,0.175 ± 0.34

row,Substance,amyloid nucleation score
1,GMYYPREIEFLAFWSTTRGR,-0.956 ± 1
2,MKRLPDSDIMVVPIVHKINL,inactive
3,VGGQNGCCWVVLNTSVPNSS,6.645 ± 0.052
4,MVCLLSFPHPCGINLMVARN,-0.147 ± 0.37
5,NVCNTNWESVRKAWFSNMMV,0.775 ± 0.52
6,SNGTWLKNLGGPPPGRAMPW,0.419 ± 0.34
7,IFRISPSLGKRYGVRPERSW,1.32 ± 0.38
8,REQYPYINQHRP,2.52 ± 0.14
9,VLSCRSLSAQFSMPAFMEQS,0.972 ± 0.18
10,YTTQLGWWFFRGRTTLNKWV,1.06 ± 0.61
11,WYIKF,1.54 ± 0.3
12,IFRTFFIYKEFCGFLWCVGG,1.02 ± 0.32
13,WPTSSTYQHWFD,0.606 ± 0.41
14,FWDRMGLNEEVFQGSLSSAW,inactive
15,THVRVEVLS,inactive
16,SSYGFINYMTS,inactive
17,NGSRI,0.018 ± 0.31
18,GALRGGVTRLQILRCFFYFW,0.491 ± 0.74
19,AMLDLRINTSRAGSHSRVVT,2.81 ± 0.069
20,FVVESVKVNRSLACF,-0.205 ± 0.45
21,FPGRFRGKSLEKRMVM,0.721 ± 0.46
22,SCAGSWNNKGGSKLQWDFLV,-1.82 ± 0.75
